Assay results reported in paper PMC4917820, “Structural basis for autoinhibition and its relief of MOB1 in the Hippo pathway” (Scientific Reports, 2016).

Columns and labels:
[1] = molecular target: GST-N-terminal truncated MOB1B, N-terminal 10-residue truncated form (mouse) (UniProt Q8BPB0); assay: pull-down; GST-MOB1B and LATS1 proteins (40 μM) mixed 1:1 in 20 mM Tris-HCl (pH 7.5), 0.3 M NaCl, 1 mM DTT, applied to Glutathione Sepharose 4B, washed at 4 °C, eluted with glutathione, SDS-PAGE with Coomassie blue, band intensities
[2] = molecular target: T1, GST-MOB1B, N-terminal 32-residue truncated form (33-216) (mouse, UniProt Q8BPB0 33-216); assay: as above; details: both partners purified
T1 construct: MOB1B, mouse, residues 33-216; also called NΔ32; GST-N-truncated Δ32 MOB1B; source: E. coli; GST fusion, purification of this form not described; not shown: GST, N-terminal, kept
T1 sequence (looked up): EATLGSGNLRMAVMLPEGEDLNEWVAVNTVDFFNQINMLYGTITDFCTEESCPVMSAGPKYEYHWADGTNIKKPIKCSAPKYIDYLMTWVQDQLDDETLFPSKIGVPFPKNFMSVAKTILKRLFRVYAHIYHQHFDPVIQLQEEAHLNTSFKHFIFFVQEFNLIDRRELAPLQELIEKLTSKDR

[3] = molecular target: T2, N-terminal truncated MOB1B (33-216) (mouse, UniProt Q8BPB0 33-216); assay: crystal structure; 1:1 molar ratio mixture of MOB1B and LATS1 (621-703) crystallised by vapor diffusion, MES pH 6.5, PEG; details: both partners purified
T2 construct: MOB1B, mouse, residues 33-216; also called N-terminal 32-residue truncated form; N-truncated MOB1B; source: E. coli, purified (Glutathione Sepharose 4B, HRV 3C digestion, HiTrap Q gradient, Superdex 75pg); not shown: GST, N-terminal, cleaved
T2 sequence (looked up): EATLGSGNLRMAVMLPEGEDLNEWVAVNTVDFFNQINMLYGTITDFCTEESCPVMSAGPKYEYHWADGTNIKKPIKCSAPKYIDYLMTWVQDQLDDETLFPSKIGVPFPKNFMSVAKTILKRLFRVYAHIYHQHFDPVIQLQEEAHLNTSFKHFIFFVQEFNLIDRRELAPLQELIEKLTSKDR

[4] = molecular target: T3, double-mutant T12D/T35D MOB1B (1-216) (mouse, UniProt Q8BPB0 1-216, T12D | T35D); assay: as above; details: both partners purified
T3 construct: MOB1B, mouse, residues 1-216, with T12D and T35D; everywhere else it is T12D/T35D; also called phosphomimic (T12D/T35D) double-mutant; MOB1B(T12/35D); source: E. coli, purified by the same procedure as full-length MOB1B (GST removed); not shown: GST, N-terminal, cleaved
T3 sequence (looked up): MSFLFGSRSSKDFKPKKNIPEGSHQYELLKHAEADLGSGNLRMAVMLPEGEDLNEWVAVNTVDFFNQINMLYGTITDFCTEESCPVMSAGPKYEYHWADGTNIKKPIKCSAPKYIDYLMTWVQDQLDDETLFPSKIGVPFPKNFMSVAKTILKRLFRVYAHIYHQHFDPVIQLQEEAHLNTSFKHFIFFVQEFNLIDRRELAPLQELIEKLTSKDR

## NTR domain of LATS1 (limits not told for this experiment) (domain or fragment)
[1]
  relative autoinhibition of LATS1 binding (full length 100%, NΔ32 0%): 66%

B1: NTR domain (residues 621-703) of LATS1 (domain or fragment, mouse, UniProt Q8BYR2 621-703, looked up)
chain: KDEERRESRIQSYSPQAFKFFMEQHVENVLKSHQQRLHRKKQLENEMMRVGLSQDAQDQMRKMLCQKESNYIRLKRAKMDKSM
notes: also called N-terminal regulation (NTR) domain of LATS1; source: E. coli BL21 (DE3) Star, resolubilized from the insoluble fraction, purified (Ni-NTA, HiTrap SP, Superdex 75pg)
[2]
  binding result: binds
[3]
  binding result: binds
[4]
  binding result: binds

B2: NTR domain (residues 604-703) of LATS1 (domain or fragment, mouse, UniProt Q8BYR2 604-703, looked up)
chain: KEKKQITTSPITVRKNKKDEERRESRIQSYSPQAFKFFMEQHVENVLKSHQQRLHRKKQLENEMMRVGLSQDAQDQMRKMLCQKESNYIRLKRAKMDKSM
notes: also called wild-type; source: E. coli BL21 (DE3) Star, resolubilized from the insoluble fraction, purified (Ni-NTA, HiTrap SP, Superdex 75pg)
[2]
  binding result: binds

B3: NTR domain (604-703) of LATS1, R696A (domain or fragment, mouse, UniProt Q8BYR2 604-703, looked up)
chain: KEKKQITTSPITVRKNKKDEERRESRIQSYSPQAFKFFMEQHVENVLKSHQQRLHRKKQLENEMMRVGLSQDAQDQMRKMLCQKESNYIRLKAAKMDKSM
notes: source: E. coli, resolubilized, purified (Ni-NTA, Superdex 75pg)
[2]
  binding relative to the wild-type: < 20%

B4: NTR domain (604-703) of LATS1, S689E (domain or fragment, mouse, UniProt Q8BYR2 604-703, looked up)
chain: KEKKQITTSPITVRKNKKDEERRESRIQSYSPQAFKFFMEQHVENVLKSHQQRLHRKKQLENEMMRVGLSQDAQDQMRKMLCQKEENYIRLKRAKMDKSM
notes: also called phosphomimetic substitution; source: E. coli, resolubilized, purified (Ni-NTA, Superdex 75pg)
[2]
  binding relative to the wild-type: < 10%

B5: NTR domain (604-703) of LATS1, R693A (domain or fragment, mouse, UniProt Q8BYR2 604-703, looked up)
chain: KEKKQITTSPITVRKNKKDEERRESRIQSYSPQAFKFFMEQHVENVLKSHQQRLHRKKQLENEMMRVGLSQDAQDQMRKMLCQKESNYIALKRAKMDKSM
notes: as for B3
[2]
  binding relative to the wild-type: < 20%

B6: NTR domain (604-703) of LATS1, R656A (domain or fragment, mouse, UniProt Q8BYR2 604-703, looked up)
chain: KEKKQITTSPITVRKNKKDEERRESRIQSYSPQAFKFFMEQHVENVLKSHQQALHRKKQLENEMMRVGLSQDAQDQMRKMLCQKESNYIRLKRAKMDKSM
notes: as for B3
[2]
  binding relative to the wild-type: < 20%
